This assay has as its target T1, human B7H6 (human, UniProt Q68D85 25-454).
T1 construct: in the immunoblot and immunoprecipitation experiments it stood in cell lysates; residues 1-24 are not expressly called a signal peptide; also called P815.B7H6; P815.B7-H6
T1 sequence: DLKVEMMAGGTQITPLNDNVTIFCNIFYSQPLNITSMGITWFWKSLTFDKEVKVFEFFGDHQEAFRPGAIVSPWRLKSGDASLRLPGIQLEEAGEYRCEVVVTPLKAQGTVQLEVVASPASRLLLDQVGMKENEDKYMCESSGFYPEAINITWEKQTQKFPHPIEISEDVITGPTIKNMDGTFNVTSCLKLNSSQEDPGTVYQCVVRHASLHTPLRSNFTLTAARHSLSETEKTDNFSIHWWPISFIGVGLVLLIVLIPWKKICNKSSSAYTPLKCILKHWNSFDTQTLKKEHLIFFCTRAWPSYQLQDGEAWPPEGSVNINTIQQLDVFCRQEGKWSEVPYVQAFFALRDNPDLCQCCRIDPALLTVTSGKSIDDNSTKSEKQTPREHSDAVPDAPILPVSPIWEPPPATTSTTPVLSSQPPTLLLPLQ
The experiment in a line: FACS on P815.B7-H6 cells.

B1: NKp30Fc, soluble form of human NKp30 consisting of the extracellular domain of human NKp30 with a C-terminal Fc fusion (Fc fusion, UniProt O14931 19-135, looked up)
chain: LWVSQPPEIRTLEGSSAFLPCSFNASQGRLAIGSVTWFRDEVVPGKEVRNGTPEFRGRLAPLASSRFLHDHQAELHIRDVRGHDASIYVCRVEVLGLGVGTGNGTRLVVEKEHPQLG
notes: extracellular domain; not shown: C-terminal Fc
For B1, the binding result is “binds”.
